Source: patent publication US20140113348A1 (CITY OF HOPE, published 2014)
Numbering of substitutions follows the chain as printed. Bridges are numbered along the chain shown (N, C = ends). Where no end group is shown, it is not given here. [ ]: non-standard residue; d: D form. Dip = N[C@H](C(=O)O)C(c1ccccc1)c1ccccc1

Columns and labels:
[1] = target: T1, meditope-enabled M5A (M5A 8M); assay: SPR, kinetic fit, meditope at 10, 2, 0.4 and 0.08 uM over M5A 8M IgG immobilized at 5000 RU
T1 construct: Eight point mutations in the light chain; wild-type heavy chain; expressed in NS0 cells; also called meditope-enabled anti-CEA antibody
T1 sequence (light, as listed by the source, chain 1 of 2): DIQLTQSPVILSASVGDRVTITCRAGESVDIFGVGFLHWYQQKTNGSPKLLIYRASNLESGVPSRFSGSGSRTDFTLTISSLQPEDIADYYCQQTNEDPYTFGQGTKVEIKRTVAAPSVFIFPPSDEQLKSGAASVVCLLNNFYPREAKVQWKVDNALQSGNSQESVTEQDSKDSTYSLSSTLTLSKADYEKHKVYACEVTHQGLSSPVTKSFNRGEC
T1 sequence (heavy, as listed by the source, chain 2 of 2): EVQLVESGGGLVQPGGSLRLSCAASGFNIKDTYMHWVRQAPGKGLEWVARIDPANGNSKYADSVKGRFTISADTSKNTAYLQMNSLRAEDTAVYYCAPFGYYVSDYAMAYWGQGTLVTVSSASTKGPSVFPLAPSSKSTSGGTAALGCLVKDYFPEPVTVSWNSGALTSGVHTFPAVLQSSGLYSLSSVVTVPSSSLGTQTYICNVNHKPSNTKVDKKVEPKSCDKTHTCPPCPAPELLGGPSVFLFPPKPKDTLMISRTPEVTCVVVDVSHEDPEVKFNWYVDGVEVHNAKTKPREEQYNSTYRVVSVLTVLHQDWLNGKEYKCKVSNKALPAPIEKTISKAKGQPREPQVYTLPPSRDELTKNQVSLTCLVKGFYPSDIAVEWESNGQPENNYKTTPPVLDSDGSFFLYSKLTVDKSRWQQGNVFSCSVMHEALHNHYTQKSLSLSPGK

[2] = target: T1, meditope-enabled M5A (M5A 8M); assay: SPR
wild-type trastuzumab [3] = target: T2, wild-type trastuzumab; assay: FACS, SKBR3 cells pre-treated with AF488 wild-type trastuzumab, then 0.1 or 1 µM AF647-MPL (L3), washed extensively
T2 construct: also called WT T
T2 sequence (heavy, as listed by the source limits assumed, chain 1 of 2, other chains not shown): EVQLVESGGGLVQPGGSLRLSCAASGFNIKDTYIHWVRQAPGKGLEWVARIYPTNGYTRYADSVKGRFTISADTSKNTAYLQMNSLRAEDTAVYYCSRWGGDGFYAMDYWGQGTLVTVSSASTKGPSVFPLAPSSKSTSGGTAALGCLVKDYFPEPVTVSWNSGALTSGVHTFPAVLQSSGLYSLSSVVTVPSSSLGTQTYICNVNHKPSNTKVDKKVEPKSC

[4] = target: T3, wild-type M5A (anti-CEA antibody); assay: FACS, LS174T cells with 500 nM AF488 wild-type M5A and 9 µM AF647-MPL, 30 min [upper right histogram]
T3 construct: Humanized antibody with the same backbone as trastuzumab
T3 sequence (light, as listed by the source, chain 1 of 2): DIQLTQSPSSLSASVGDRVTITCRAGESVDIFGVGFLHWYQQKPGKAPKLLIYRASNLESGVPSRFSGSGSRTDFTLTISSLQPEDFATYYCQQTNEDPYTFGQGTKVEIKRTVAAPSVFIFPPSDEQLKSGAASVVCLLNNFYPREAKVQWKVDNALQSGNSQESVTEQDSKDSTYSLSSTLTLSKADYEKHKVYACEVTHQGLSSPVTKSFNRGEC
T3 sequence (heavy, as listed by the source, chain 2 of 2): as the sequence (heavy, as listed by the source, chain 2 of 2) above

[5] = target: T1, meditope-enabled M5A (M5A 8M); assay: FACS, LS174T cells with 500 nM AF488 M5A 8M and 9 µM AF647-MPL, 30 min [upper right histogram]
HER2 on SKBR3 cells = target: T4, HER2 on SKBR3 cells (UniProt P04626 23-1255, limits assumed); assay: FACS, SKBR3 cells without antibody
T4 construct: whole, on cells; also called HER2-expressing cells (SKBR3)

wild-type trastuzumab [6] = target: T2, wild-type trastuzumab; assay: FACS, SKBR3 cells pre-bound with WT T, washed, then 0.1 or 1 µM Alexa 647-MPL-5K
[7] = target: T5, meditope-enabled trastuzumab; assay: SPR; earlier SPR study of paragraph 680, approximate binding constant stated in text
T5 construct: Full IgG expressed in mammalian cells; also called TM; trastuzumab memAb
T5 sequence (heavy, as listed by the source limits assumed, chain 1 of 2): as the sequence (heavy, as listed by the source limits assumed, chain 1 of 2, other chains not shown) above, with A40S, V93I counted along it
T5 sequence (light, as listed by the source limits assumed, chain 2 of 2): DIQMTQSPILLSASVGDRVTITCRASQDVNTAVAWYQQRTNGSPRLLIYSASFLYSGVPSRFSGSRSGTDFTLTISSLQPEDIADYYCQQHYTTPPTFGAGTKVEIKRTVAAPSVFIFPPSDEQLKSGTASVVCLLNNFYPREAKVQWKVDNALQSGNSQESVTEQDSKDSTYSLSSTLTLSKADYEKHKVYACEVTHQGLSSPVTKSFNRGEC

B1: meditope 18 (C-QFDXSTRRLK-C) (peptide)
peptide: CQFD[Dip]STRRLKC
modifications: disulfide 1-12
notes: also called CQFDA(diphenyl)STRRLKC; 5-diphenyl meditope
Binder B1 has a Kd [1] of 438 nM, a koff [1] of 0.015 s⁻¹ and a kon [1] of 34300 M⁻¹ s⁻¹.

CQYNLSSRALKC (disulfide 1-12, also called meditope 2) [cQYN meditope (cyclic CQYNLSSRALKC)]: binds [2].

B2: meditope 31 (AcC-QFDLSTRRLR-CGGGSK) (peptide)
peptide: Ac-CQFDLSTRRLRCGGGSK
modifications: disulfide 1-12; also: fluorescein attached in labeled form for polarization assay
B2: binds [2].

B3: meditope-Protein L fusion protein (MPL), linker GGGGS (designed binder)
chain: SCQFDLSTRRLKCGGGGSEVTIKVNLIFADGKIQTAEFKGTFEEATAEAYRYAALLAKVNGEYTADLEDGGNHMNIKFAG
modifications: the two cysteines cyclized (disulfide)
notes: Labeled with AF647 in cell assays; also called MPL (L3); MPL (WT)
B3: no binding (tested: 1 µM) (wild-type trastuzumab [3]); binds [4]; binds [5]. B3: no binding (tested: 0.1 µM or 1 µM MPL) (HER2 on SKBR3 cells).

B4: meditope-Protein L fusion in which all but one lysine were mutated to arginine or asparagine (MPL-5K) (designed binder)
chain: B3 chain with K12R, K23R, K32N, K39R, K58R
B4: no binding (tested: 1 µM) (wild-type trastuzumab [6]); no binding (HER2 on SKBR3 cells).

B5: Protein L (single Fab binding domain) (other)
chain: EVTIKVNLIFADGKIQTAEFKGTFEEATAEAYRYAALLAKVNGEYTADLEDGGNHMNIKFAG
notes: also called Protein L (only); protein L alone
For B5, the Kd [7] was about 500 nM.
